Reference: paper PMC10167327

Legend:
[1] = molecular target: Vtc4* (Vtc4(1–487), SPX and TTM domains of Vtc4 without the transmembrane domain) (S. cerevisiae) (UniProt P47075); test: MST; as a1, MST buffer supplemented with 2.5 mM 1,5-IP8
[2] = molecular target: Vtc4* (Vtc4(1–487), SPX and TTM domains of Vtc4 without the transmembrane domain) (S. cerevisiae) (UniProt P47075); test: MST; as a1, MST buffer supplemented with 2.5 mM IP6
[3] = molecular target: Vtc4* (Vtc4(1–487), SPX and TTM domains of Vtc4 without the transmembrane domain) (S. cerevisiae) (UniProt P47075); test: MST; as a1, MST buffer supplemented with 2.5 mM natural 5-IP7
[4] = molecular target: Vtc4* (Vtc4(1–487), SPX and TTM domains of Vtc4 without the transmembrane domain) (S. cerevisiae) (UniProt P47075); test: MST; details: domain or fragment

Chain of Vtc4* (Vtc4(1–487), SPX and TTM domains of Vtc4 without the transmembrane domain) (S. cerevisiae) (P47075 1-487): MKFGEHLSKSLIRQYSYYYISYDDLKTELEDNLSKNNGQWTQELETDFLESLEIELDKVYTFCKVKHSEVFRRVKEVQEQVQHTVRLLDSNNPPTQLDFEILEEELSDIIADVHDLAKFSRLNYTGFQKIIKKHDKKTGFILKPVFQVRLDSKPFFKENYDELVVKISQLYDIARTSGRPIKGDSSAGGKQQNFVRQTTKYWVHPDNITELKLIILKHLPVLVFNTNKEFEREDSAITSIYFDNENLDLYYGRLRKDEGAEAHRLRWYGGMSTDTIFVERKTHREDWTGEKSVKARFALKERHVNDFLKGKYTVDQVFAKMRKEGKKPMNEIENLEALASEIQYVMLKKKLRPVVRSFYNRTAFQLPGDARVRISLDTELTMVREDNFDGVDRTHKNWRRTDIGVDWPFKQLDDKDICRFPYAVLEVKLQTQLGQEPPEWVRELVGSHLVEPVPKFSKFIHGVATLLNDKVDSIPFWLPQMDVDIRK
Chain of SPX2∆α1 (SPX2 with helix α1 truncated) (P43585 1-151): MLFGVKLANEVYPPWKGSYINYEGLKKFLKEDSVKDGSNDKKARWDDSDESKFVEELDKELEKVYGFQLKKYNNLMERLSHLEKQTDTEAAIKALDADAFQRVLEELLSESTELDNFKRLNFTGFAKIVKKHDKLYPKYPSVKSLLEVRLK

Row | fold decrease of affinity with 2.5 mM 1,5-IP8 against no ligand [1] | fold decrease of affinity with 2.5 mM IP6 against no ligand [2] | fold decrease of affinity with 2.5 mM 5-IP7 against no ligand [3] | Kd [4] | Substance
1 | > 100000 fold | > 20 fold | 85 fold |  | SPX2 (SPX domain of Vtc2, Vtc2(1–201)) (from UniProt P43585 1-201) (domain or fragment)
2 |  |  |  | 1000 µM | SPX2∆α1 (SPX2 with helix α1 truncated)
